In assay [1] the target is GPNMB (CG56972) as expressed by human cell lines (human) (UniProt Q14956). The assay is described as follows: FACS on UACC-62 cells, antibody 1 ug/mL.
Assay [2] has the same target. The assay is described as follows: flow cytometry on SK-MEL-2 cells, anti human IgG PE; control sample.
For assay [3] the target is unchanged. Description: flow cytometry on HEK293 cells transfected with GPNMB plasmid, secondary antibody alone (background); on empty-vector cells printed as 5.86.
Assay [4] shares this target. Description: flow cytometry on HEK293 cells transfected with GPNMB plasmid, PE-conjugated secondary antibody; the same sample on empty-vector cells is printed as 7.96. (Flow cytometry measures light scatter and fluorescence of single cells or particles in a stream.)

Chain of GPNMB (CG56972) as expressed by human cell lines (human) (Q14956 23-492): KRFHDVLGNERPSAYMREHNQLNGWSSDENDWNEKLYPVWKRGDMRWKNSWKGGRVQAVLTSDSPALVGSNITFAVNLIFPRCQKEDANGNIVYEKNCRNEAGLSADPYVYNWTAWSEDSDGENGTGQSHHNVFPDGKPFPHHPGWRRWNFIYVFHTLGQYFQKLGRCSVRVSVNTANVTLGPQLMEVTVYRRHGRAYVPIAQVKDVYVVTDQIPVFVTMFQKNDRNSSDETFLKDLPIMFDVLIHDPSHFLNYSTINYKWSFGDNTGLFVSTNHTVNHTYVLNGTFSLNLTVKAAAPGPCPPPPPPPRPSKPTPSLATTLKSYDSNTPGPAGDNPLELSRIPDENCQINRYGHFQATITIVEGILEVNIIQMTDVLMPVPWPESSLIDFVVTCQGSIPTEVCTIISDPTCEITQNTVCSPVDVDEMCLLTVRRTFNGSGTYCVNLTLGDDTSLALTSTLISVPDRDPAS

As for CR011.2.6.2 (antibody), in assay [1], the Geo Mean Ratio (relative to pK16) worked out at 1.9.

As to Control (antibody), in assay [2], the Geo Mean was determined as 3.03 and the Median came to 2.84.

Secondary Ab-PE (antibody) came in with a Geometric mean in assay [3] of 7.69.

isotype-matched control IgG2 antibody: the Geometric mean in assay [4] worked out at 8.63.

Values taken from patent publication US20130244255A1, “ANTIBODIES DIRECTED TO GPNMB AND USES THEREOF” (priority 2006, published 2013).
